From the supplement of paper PMC10724198 come the findings set out here.

± gives the standard deviation of the averaged measurements.

The subject of data set [1] is Saccharomyces cerevisiae. Description: protein stability index of tFT-peptide fusion (C-terminal peptide) (PSI (0-1 scale)); higher = more stable (slower turnover). The procedure: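 MPS profiling in S. cerevisiae of the tFT-X12 degron library: putative degron peptides plus stable controls, 12 aa, fused to the C-terminus of a sfGFP-mCherry timer. Cells are FACS-sorted into 8 mCherry/sfGFP bins and deep-sequenced. PSI runs from 0 (unstable) to 1 (stable). Backgrounds are wild type, das1Δ and doa10Δ at 30 °C, and wild type, das1Δ, cdc34-1 and cdc53-1 at 37 °C; 2-3 technical replicates each.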

Data set [2] relates to Saccharomyces cerevisiae. Described as above. The following applies: genetic background: wild type; temperature: 30 C.
Where [3] appears, read: genetic background: cdc34-1, temperature: 37 C.
The mark [4] stands for this setting: genetic background: cdc53-1, temperature: 37 C.
Where [5] appears, read: genetic background: das1 deletion, temperature: 30 C.
Where [6] appears, read: genetic background: das1 deletion, temperature: 37 C.
Where [7] appears, read: genetic background: doa10 deletion, temperature: 30 C.
[8] abbreviates: genetic background: wild type, temperature: 30 C.
The mark [9] stands for this setting: genetic background: wild type, temperature: 37 C.
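Further: PSI is a weighted mean of sequencing reads over stability bins, variants kept only with over 10 reads, mCherry proximal and sfGFP distal, peptide attached via GGGS linker.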

TGGGGRVSLGVG: the protein stability index in data set [1] (setting [3]) came out at 0.359 ± 0.066; in data set [1] (setting [4]), 0.416 ± 0.0099; in data set [1] (setting [5]), 0.356 ± 0.013; in data set [1] (setting [6]), 0.42 ± 0.0044; in data set [1] (setting [7]), 0.377 ± 0.0077; in data set [1] (setting [8]), 0.359 ± 0.016. Besides, in data set [1] (setting [9]), the protein stability index worked out at 0.413 ± 0.0088.

Turning to TLDWKFGWGGIG, the protein stability index was 0.603 ± 0.011 in data set [1] (setting [3]); 0.579 ± 0.016 in data set [1] (setting [4]); 0.566 ± 0.024 in data set [1] (setting [5]); 0.6477 ± 0.0045 in data set [1] (setting [6]); 0.5685 ± 0.002 in data set [1] (setting [7]); 0.574 ± 0.021 in data set [1] (setting [8]). This sequence also showed a protein stability index in data set [1] (setting [9]) of 0.645 ± 0.018.

Turning to VLRFVYDLVSAL, the protein stability index in data set [1] (setting [3]) came out at 0.559 ± 0.036; in data set [1] (setting [4]), 0.599 ± 0.011; in data set [1] (setting [5]), 0.531 ± 0.029; in data set [1] (setting [6]), 0.643 ± 0.036; in data set [1] (setting [7]), 0.334 ± 0.0067; in data set [1] (setting [8]), 0.342 ± 0.021. In data set [1] (setting [9]), this sequence gave a protein stability index of 0.435 ± 0.015.

In the case of VQTVRLVFQVLA, the protein stability index amounted to 0.307 ± 0.0063 in data set [1] (setting [3]); 0.373 ± 0.049 in data set [1] (setting [4]); 0.25 ± 0.033 in data set [1] (setting [5]); 0.4 ± 0.0099 in data set [1] (setting [6]); 0.106 ± 0.0074 in data set [1] (setting [7]); 0.125 ± 0.031 in data set [1] (setting [8]). Also, the protein stability index in data set [1] (setting [9]) was 0.207 ± 0.018.

As for VRWALLGVVVEG, the protein stability index was 0.388 ± 0.014 in data set [1] (setting [3]); 0.398 ± 0.0062 in data set [1] (setting [4]); 0.293 ± 0.029 in data set [1] (setting [5]); 0.4742 ± 0.00066 in data set [1] (setting [6]); 0.246 ± 0.0085 in data set [1] (setting [7]); 0.286 ± 0.027 in data set [1] (setting [8]). This sequence also came in with a protein stability index in data set [1] (setting [9]) of 0.428 ± 0.013.

YLTCTLLSQPIY gave a protein stability index in data set [2] of 0.542 ± 0.027.

In data set [2], YLVGVRDSFALR showed a protein stability index of 0.715 ± 0.02.

With YMGGGGASGAPA, the protein stability index in data set [2] was found to be 0.667 ± 0.047.

In turn, YNKKKKRYKKKF yielded a protein stability index in data set [2] of 0.72 ± 0.0076.

Turning to YNMGILASQGCG, the protein stability index in data set [2] amounted to 0.665 ± 0.046.

The sequence YNSRKQKKREKK registered a protein stability index in data set [2] of 0.706 ± 0.027.

For YPIFSPFSLPAL, the protein stability index in data set [2] worked out at 0.59 ± 0.0073.

In the case of YPLPPPRPPCLP, the protein stability index in data set [2] is 0.664 ± 0.063.

In data set [2], YPYRKRTIGVRT came in with a protein stability index of 0.595 ± 0.015.

Turning to YQRENYERKGYR, the protein stability index in data set [2] stood at 0.681 ± 0.067.

The sequence YQVTEEKLIMTQ returned a protein stability index in data set [2] of 0.674 ± 0.036.

In turn, YREVGGVAERRR registered a protein stability index in data set [2] of 0.695 ± 0.044.

The sequence YRGSNWEGDTPS yielded a protein stability index in data set [2] of 0.667 ± 0.054.

Regarding YRPPPLSPPSPP, the protein stability index in data set [2] was found to be 0.695 ± 0.013.

YRSVLGREEQLI yielded a protein stability index in data set [2] of 0.7 ± 0.057.

On to YRYGVSWFDWRI, for which the protein stability index in data set [2] is 0.784 ± 0.058.

Regarding YSEKFKDRFKED, the protein stability index in data set [2] was 0.67 ± 0.015.

As to YSGRCGVKLFNG, the protein stability index in data set [2] is 0.705 ± 0.073.

YSGSPPFPLSRL yielded a protein stability index in data set [2] of 0.801 ± 0.027.

For the sequence YSIAYGVLWRYR, the protein stability index in data set [2] came out at 0.5687 ± 0.0051.

In turn, YSLIPLSSISQH returned a protein stability index in data set [2] of 0.685 ± 0.074.

In data set [2], YSNCPQPRVISD came in with a protein stability index of 0.6 ± 0.063.

YSPSCPRTSPLL had a protein stability index in data set [2] of 0.726 ± 0.046.

Sequence YSQSRPYFRIPG registered a protein stability index in data set [2] of 0.647 ± 0.029.

In data set [2], YSSGKPMEITIA returned a protein stability index of 0.678 ± 0.084.

Regarding YTHIRGVLFGVR, the protein stability index in data set [2] was determined as 0.704 ± 0.034.

Regarding YTSHPVLPEVNG, the protein stability index in data set [2] worked out at 0.695 ± 0.035.

For the sequence YTSTPTLYTRLW, the protein stability index in data set [2] was 0.689 ± 0.014.

YTWHKLFFAYAI: in data set [2], the protein stability index was 0.528 ± 0.0059.

YVLSVKEGTNLP: the protein stability index in data set [2] was found to be 0.709 ± 0.023.

For YVSYVFDYEVRH, in data set [2], the protein stability index came to 0.709 ± 0.051.

On to YVTSKLMNLVLY, for which the protein stability index in data set [2] was 0.662 ± 0.066.

For YVVWGGVQGSVL, in data set [2], the protein stability index is 0.747 ± 0.046.

For the sequence YWSFRKGGLALY, the protein stability index in data set [2] amounted to 0.651 ± 0.019.
